Laboratory results as given in patent US10568344B2, “Methods of improving animal performance” (Novozymes A/S, priority 2015, dated 2020).
Read-outs that look alike come from different tables or passages of the source. Marks after values point to notes of the source that are not given here.

Key:
Clostridiales = assay: Microbiota analysis of broiler trial 4 (16S rRNA), Clostridiales; assay type: in vivo, chicken; design: key to Observed shift compared to the control group, Significance: Significant change (+++), padj < 0.05; Numerical change (+); conditions: 50 ppm
[1] = In vivo broiler trial 2, growth performance; design: species or system male broiler chickens
Procedure: No additional enzymes (e.g. phytase) were added to the feed. The experimental diets (Starter and Grower) were based on soybean meal, wheat and rye (12%) as main ingredients (Table 6). The diets were formulated to contain 222 g crude protein and 12.5 MJ/kg MEN for the starter period and 204 g crude protein and 12.7 MJ/kg MEN for the grower period.

[2] = tested on: Exiguobacterium undae (DSM14481); assay: Lysozyme activity turbidity assay (optical density drop); assay type: biochemical; conditions: pH 5
[3] = tested on: Micrococcus lysodeikticus ATTC No. 4698; assay: as above; conditions: pH 4
Faecalibacterium = assay: Microbiota analysis of broiler trial 4 (16S rRNA), Faecalibacterium; assay type: in vivo, chicken; design: key to Observed shift compared to the control group, Significance: Significant change (+++), padj < 0.05; Numerical change (+); conditions: 50 ppm
[4] = In vivo broiler trial 4, FCR and EPEF; design: species or system male broiler type chickens (Cobb 500); conditions: 50 mg/kg in Grower feed (Days 8-24)
Procedure: Diet composition was designed to meet or exceed the requirements except for metabolisable energy, phosphorus and calcium (tables 15 and 16). […] During the Grower period, the lysozyme (SEQ ID NO: 1) was applied at […] as a liquid formulation (table 14). There were no other enzymes or any coccidiostats supplemented in the diets. The diets were prepared at a […] specialised in experimental diets and the mash feed was offered ad libitum to the birds. At the day of hatching, male day-old broiler type chickens (male byproducts of female parental line of Cobb 500) were obtained from Cobb Germany […] GmbH, […] (Brö[…] birds were randomly assigned in groups of 22 chickens to the experimental pens ( 3 sq·m.) equipped with a bell drinker and a round feeder. After 7 days of equal rearing, number of birds per pen was reduced to 20, selecting against obviously light birds. Recorded body weights (BW) were immediately statistically evaluated. In order to ensure similar average BW between treatments and variation within treatments statistical evaluation of BW-placement of chicks was coordinated in such a way as to minimize within-pen variation and between-treatment differences of average BW. Feed and water were freely available, feed consumption was recorded. Initial bedding consisted of wood shavings. Caked excreta patches around the drinkers were removed several times during the experimental period and more bedding material was added when required. Light and temperature regimes were managed according to the breeder's recommendations. Birds were weighed (groupwise) at placement and at the end of each fattening period. At the final weighing, birds were weighed individually. Feed offered was recorded continuously upon refilling the feeders; the feed remaining in the feeders was recorded at the end of each fattening period. […] Daily BW gain per bird (BW gain) and feed conversion ratio (FCR) were calculated as follows: BWgain: difference between BW per bird at the end and at the beginning of the study divided by the number of days FCR: total feed consumption of a pen divided by total BW gain of that pen (total BW gain=total BW at the end+weight of removals and losses-total BW at the beginning) The European Production Efficacy Factor (EEF) was calculated as follows: EEF=[(liveability,%×BWgain,kg)/(Study duration in days×FCR)]×100. Statistical Analysis Data of performance was analysed using a bi-factorial ANOVA (procedure PROC GLM) with the fixed effects of lysozyme supplementation as well as their interaction. Differences were investigated between the various levels of each main factor (Tukey test), accounting for multiple comparisons where appropriate.

[5] = tested on: Clostridium perfringens DSM756; assay type: cell-based; conditions: for Diameter of zone of incomplete inhibition of growth visible after MTT coloring: 100 μg/ml; for Diameter of clearing zone: lysozymes 100 μg/ml, bacitracin 50 μg/ml
[6] = Grower (d 22-36), 6.25 mg/kg feed
[7] = Grower (d 22-36), 12.5 mg/kg feed
[8] = Grower (d 22-36), 25 mg/kg feed
[9] = Starter (d 1-22), 6.25 mg/kg feed
[10] = Starter (d 1-22), 12.5 mg/kg feed
[11] = Starter (d 1-22), 25 mg/kg feed
[12] = Whole period (d 1-36), 6.25 mg/kg feed
[13] = Whole period (d 1-36), 12.5 mg/kg feed
[14] = Whole period (d 1-36), 25 mg/kg feed

B1: SEQ ID NO: 1: mature amino acid sequence of a wild type GH25 lysozyme from Acremonium alcalophilum with N-terminal SPIRR (protein)
chain: SPIRRRIPGFDISGWQPTTDFARAYANGDRFVYIKATEGTTFKSSAFSRQYTGATQNGFIRGAYHFAQPAASSGAAQARYFASNGGGWSKDGITLPGALDIEYNPNGATCYGLSQSAMVNWIEDFVTTYHGITSRWPVIYTTTDWWTQCTGNSNRFANRCPLWIARYASSVGTLPNGWGFYTFWQYNDKYPQGGDSNWFNGDASRLRALANGD
modifications: Wild type sequence with N-terminal SPIRR
Clostridiales; Order level (Clostridiales)
  Observed shift compared to the control group, Significance: +
Clostridiales; order level
  Clostridiales Change vs control: 5.3792
  Clostridiales Ratio vs control: 1.1671
Clostridiales; order level, ceca content
  Clostridiales abundance, Lysozyme treatment: 37.5638
[1]; [6]
  FCR: 1.753^a
  FCR, Relative to C (%): 101.9%
  Feed intake: 2705 g/b
  Feed intake, Relative to C (%): 99.1%
  Weight gain: 1545 g/b
  Weight gain, Relative to C (%): 97.4%
[1]; [7]
  FCR: 1.692^a
  FCR, Relative to C (%): 98.3%
  Feed intake: 2671 g/b
  Feed intake, Relative to C (%): 97.8%
  Weight gain: 1581 g/b
  Weight gain, Relative to C (%): 99.7%
[1]; [8]
  FCR: 1.686^a
  FCR, Relative to C (%): 98%
  Feed intake: 2753 g/b
  Feed intake, Relative to C (%): 100.8%
  Weight gain: 1633 g/b
  Weight gain, Relative to C (%): 102.9%
[1]; [9]
  FCR: 1.403^ab
  FCR, Relative to C (%): 101.8%
  Feed intake: 1551^ab g/b
  Feed intake, Relative to C (%): 105.4%
  Weight gain: 1106 g/b
  Weight gain, Relative to C (%): 103.6%
[1]; [10]
  FCR: 1.339^b
  FCR, Relative to C (%): 97.1%
  Feed intake: 1403^d g/b
  Feed intake, Relative to C (%): 95.4%
  Weight gain: 1049 g/b
  Weight gain, Relative to C (%): 98.3%
[1]; [11]
  FCR: 1.332^b
  FCR, Relative to C (%): 96.6%
  Feed intake: 1434^cd g/b
  Feed intake, Relative to C (%): 97.4%
  Weight gain: 1076 g/b
  Weight gain, Relative to C (%): 100.9%
[1]; [12]
  FCR: 1.604^a
  FCR, Relative to C (%): 101.6%
  Feed intake: 4249 g/b
  Feed intake, Relative to C (%): 101.4%
  Weight gain: 2651 g/b
  Weight gain, Relative to C (%): 99.9%
[1]; [13]
  FCR: 1.548^bc
  FCR, Relative to C (%): 98.1%
  Feed intake: 4069 g/b
  Feed intake, Relative to C (%): 97.1%
  Weight gain: 2630 g/b
  Weight gain, Relative to C (%): 99.1%
[1]; [14]
  FCR: 1.543^c
  FCR, Relative to C (%): 97.8%
  Feed intake: 4181 g/b
  Feed intake, Relative to C (%): 99.8%
  Weight gain: 2709 g/b
  Weight gain, Relative to C (%): 102.1%
[1]; day 1 to day 36, 12.5 mg/kg
  Improvement of FCR compared to the control diet: 1.9%
[1]; day 1 to day 36, 25 mg/kg
  Improvement of FCR compared to the control diet: 2.2%
  Improvement of weight gain compared to C: 2.0%
[1]; grower period, 25 mg/kg
  Improvement of FCR compared to the control diet: 2.0%
  Improvement of weight gain compared to the control diet: 2.9%
[1]; starter period, 6.25 mg/kg
  Improvement of weight gain compared to the control diet: 3.6%
[1]; starter period, 12.5 mg/kg
  Improvement of FCR compared to the control diet: 2.9%
[1]; starter period, 25 mg/kg
  Improvement of FCR compared to the control diet: 3.4%
[2]
  Lysozyme activity as measured by Optical Density Drop: + (pH 5)
[3]
  Lysozyme activity as measured by Optical Density Drop: + (pH 4)
Faecalibacterium; Genus level (Faecalibacterium)
  Observed shift compared to the control group, Significance: +
Faecalibacterium; OTU level (Faecalibacterium species)
  Observed shift compared to the control group, Significance: +++ (Significant change (+++), padj < 0.05)
Faecalibacterium; OTU level
  OTU #27 (Faecalibacterium) Change vs control: 3.45
  OTU #27 (Faecalibacterium) Ratio vs control: 16.53
Faecalibacterium; OTU level, ceca content
  OTU #27 (Faecalibacterium) abundance, Lysozyme treatment: 3.67
Faecalibacterium; genus level
  Faecalibacterium Change vs control: 5.65
  Faecalibacterium Ratio vs control: 4.04
Faecalibacterium; genus level, ceca content
  Faecalibacterium abundance, Lysozyme treatment: 7.50
[4]
  EPEF: 327
  FCR: 1.56
[4]; vs no lysozyme
  EPEF % improvement: 3.8%
  EPEF change: 12
  FCR % improvement: 1.9%
  FCR change: 0.03
[5]; 1/10 MHB, pH7, both experiments
  Inhibition zone: 11-13 mm
[5]; Experiment 1, 1/2 MHB pH 6
  Diameter of zone of incomplete inhibition of growth visible after MTT coloring: 20 mm
  Diameter of clearing zone: 6 mm
[5]; Experiment 1, 1/10 MHB pH 7
  Diameter of clearing zone: 13 mm
[5]; Experiment 2, 1/2 MHB pH 6
  Diameter of zone of incomplete inhibition of growth visible after MTT coloring: 19 mm
  Diameter of clearing zone: 4 mm
[5]; Experiment 2, 1/10 MHB pH 7
  Diameter of clearing zone: 11 mm
[5]; ½ MHB, pH 6, after coloring with MTT
  Larger incomplete clearing zone: 19-20 mm
[5]; ½ MHB, pH 6, both experiments
  Clearing zone diameter: 4-6 mm
